From publication PMC5155159 come the findings set out here.

For series [1], the target named is Dicer TN (catalytically inactive), without ectopic TRBP (UniProt Q9UPY3). In words: single-molecule TIRF. The settings on record: amine-modified U69 (dye), 20 mM Tris pH 8.0, 200 mM KCl, 0.2 mM EDTA, glucose oxidase/catalase oxygen scavenger, 1 mM Trolox, 200 pM labelled RNA (200 nM in Methods), Mg2+ where ….
In series [2] the target is T1, Dicer TN (catalytically inactive), without ectopic TRBP;TRBP full length (D1-D2-D3) (UniProt Q9UPY3+Q15633). In words: single-molecule TIRF. Particulars: amine-modified U69 (dye), 20 mM Tris pH 8.0, 200 mM KCl, 0.2 mM EDTA, glucose oxidase/catalase oxygen scavenger, 1 mM Trolox, 200 pM labelled RNA (200 nM in Methods), Mg2+ where ….
For series [3], the target named is T2, TRBP recombinant (UniProt Q15633).
T2 sequence: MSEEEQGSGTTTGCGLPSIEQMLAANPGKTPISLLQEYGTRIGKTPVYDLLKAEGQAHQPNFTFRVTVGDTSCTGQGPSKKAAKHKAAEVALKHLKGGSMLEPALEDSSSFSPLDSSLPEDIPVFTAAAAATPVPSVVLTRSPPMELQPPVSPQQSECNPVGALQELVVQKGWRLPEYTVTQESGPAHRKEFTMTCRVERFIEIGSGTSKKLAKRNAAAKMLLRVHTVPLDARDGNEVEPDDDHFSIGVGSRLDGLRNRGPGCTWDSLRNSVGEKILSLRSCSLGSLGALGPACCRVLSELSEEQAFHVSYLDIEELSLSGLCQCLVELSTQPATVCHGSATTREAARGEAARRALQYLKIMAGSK
In words: single-molecule TIRF. The settings on record: amine-modified U69 (dye), 20 mM Tris pH 8.0, 200 mM KCl, 0.2 mM EDTA, glucose oxidase/catalase oxygen scavenger, 1 mM Trolox, 200 pM labelled RNA (200 nM in Methods), Mg2+ where ….

The target in series [4] is T1, Dicer TN (catalytically inactive), without ectopic TRBP;TRBP full length (D1-D2-D3). In words: single-molecule TIRF, two-color. Particulars: amine-modified U69 (dye), 20 mM Tris pH 8.0, 200 mM KCl, 0.2 mM EDTA, glucose oxidase/catalase oxygen scavenger, 1 mM Trolox, 200 pM labelled RNA (200 nM in Methods), Mg2+ where ….
For series [5], the target named is Dicer TN (catalytically inactive), without ectopic TRBP;TRBP D2-D3 (UniProt Q9UPY3+Q15633). In words: single-molecule TIRF competition. Particulars: 1 uM competitor tRNA; WT or TN form not given; amine-modified U69 (dye); 20 mM Tris pH 8.0, 200 mM KCl, 0.2 mM EDTA, glucose oxidase/catalase oxygen scavenger, 1 mM Trolox; 200 pM labelled RNA (200 nM in Methods); Mg2+ where ….

In series [6] the target is Dicer TN (catalytically inactive), without ectopic TRBP (UniProt Q9UPY3). In words: single-molecule TIRF competition. Particulars: 1 uM competitor tRNA; WT or TN form not given; amine-modified U69 (dye); 20 mM Tris pH 8.0, 200 mM KCl, 0.2 mM EDTA, glucose oxidase/catalase oxygen scavenger, 1 mM Trolox; 200 pM labelled RNA (200 nM in Methods); Mg2+ where ….
Series [7] deals with T1, Dicer TN (catalytically inactive), without ectopic TRBP;TRBP full length (D1-D2-D3). In words: single-molecule TIRF competition. The settings on record: 1 uM competitor tRNA; WT or TN form not given; amine-modified U69 (dye); 20 mM Tris pH 8.0, 200 mM KCl, 0.2 mM EDTA, glucose oxidase/catalase oxygen scavenger, 1 mM Trolox; 200 pM labelled RNA (200 nM in Methods); Mg2+ where ….

Series [8] concerns the target Dicer TN (catalytically inactive), without ectopic TRBP;TRBP D3 (UniProt Q9UPY3+Q15633). In words: single-molecule TIRF competition. Particulars: 1 uM competitor tRNA; WT or TN form not given; amine-modified U69 (dye); 20 mM Tris pH 8.0, 200 mM KCl, 0.2 mM EDTA, glucose oxidase/catalase oxygen scavenger, 1 mM Trolox; 200 pM labelled RNA (200 nM in Methods); Mg2+ where ….

Where [9] appears, read: equivalent IP amount, WT or TN form not given.

Turning to “UGAGGUAGUAGGUUGUAUAGUUUUAGGGUCACACCCACCACUGGGAGAUAACUAUACAAUCUACUGUCUUUCU [pre-let-7a-1 3' 2nt-biotin]”, the binding signal (binding events) in series [1] (five times more than Dicer-TRBP, 56.7% long, 34.0 +/- 5.6 s, 3'-biotin) came out at 1780; in series [2] (14.2% long, 27.8 +/- 2.2 s, short 3.7 +/- 1.3 s, 85.8%, 3'-biotin) it was 341; in series [4] (3'-biotin), 2340. Further, in series [3] (no noticeable difference from N1, 3'-biotin), the binding signal (s (dwell time)) worked out at 120.
Sequence “UGAGGUAGUAGGUUGUAUAGUUUUAGGGUCACACCCACCACUGGGAGAUAACUAUACAAUCUACUGUCUUUC [pre-let-7a-1 3' 1nt]” showed a binding signal (binding events) in series [4] (2.9x fewer than N1, 55.6% long, 25.3 +/- 2.9 s, short 3.7 +/- 0.8 s) of 2750.
With “UGAGGUAGUAGGUUGUAUAGUUUUAGGGUCACACCCACCACUGGGAGAUAACUAUACAAUCUACUGUCUUUCUUUUUUUUUUUUUUUUUUUUUUUUUUUUUUUUUUUUUUUUUUUUUUUUU [pre-let-7a-1 3' U49]”, in series [3] (no difference from N1), the binding signal (s (dwell time)) was determined as 120. The binding signal (binding events) in series [4] (2.5x fewer than N1, 31.0% long, 11.0 +/- 2.3 s, short 1.2 +/- 0.2 s) worked out at 2040.
As to “UGAGGUAGUAGGUUGUAUAGUUUUAGGGUCACACCCACCACUGGGAGAUAACUAUACAAUCUACUGUCUUUCU [pre-let-7a-1 3' 2nt (standard)]”, the binding signal (s (long dwell time)) in series [1] (43.1% long, short 2.8 +/- 0.7 s, 56.9%, panel assignment from figure order) came to 21.9; in series [2] (48.1% long, short 1.5 +/- 0.4 s, 51.9%), 13.9; in series [4] (with N3, 54.7% long, short 1.4 +/- 0.3 s), 17. In addition, the binding signal (bound spots per field) in series [1] (setting [9]) came out at 58; in series [2] (setting [9]), 781. Besides, the binding signal (s (dwell time)) in series [3] (200 pM RNA) worked out at 120. The binding signal (binding events) in series [4] (with N2 at equal concentration, 57.7% long binding) is 7410; in series [4] (with N4, long 19.1 s, short 3.0 +/- 1.05 s, 54.0%), 8050. Further, the binding signal (% inhibition of binding) in series [5] came to 29; in series [6], 77.9; in series [7] it was 6.1; in series [8], 83.
